Values belong to the molecule of their own block, whether it stands above or below them.
Columns and labels:
[1] = molecular target: human PlGF-1 comprising amino acids 1-137 produced in human embryonic kidney cells (human) (UniProt P49763); assay: Format 2 …, capture MAb264, detection Pb264; sFlt-1 307 pmol/L (ratio 10)
[2] = molecular target: human PlGF-1 comprising amino acids 1-137 produced in human embryonic kidney cells (human) (UniProt P49763); assay: Format 1 …, capture 2-826-335, detection 1-255-713; sFlt-1 3067 pmol/L (ratio 100)
[3] = molecular target: human PlGF-1 comprising amino acids 1-137 produced in human embryonic kidney cells (human) (UniProt P49763); assay: Format 3 Quantikine ELISA, capture MAb264, detection Pb264; sFlt-1 1227 pmol/L (ratio 40)
[4] = molecular target: human PlGF-1 comprising amino acids 1-137 produced in human embryonic kidney cells (human) (UniProt P49763); assay: Format 1 …, capture 2-826-335, detection 1-255-713; sFlt-1 4600 pmol/L (ratio 150)
[5] = molecular target: human PlGF-1 comprising amino acids 1-137 produced in human embryonic kidney cells (human) (UniProt P49763); assay: Format 2 …, capture MAb264, detection Pb264; sFlt-1 1227 pmol/L (ratio 40)
[6] = molecular target: human PlGF-1 comprising amino acids 1-137 produced in human embryonic kidney cells (human) (UniProt P49763); assay: Format 3 Quantikine ELISA, capture MAb264, detection Pb264; sFlt-1 77 pmol/L (ratio 2.5)
[7] = molecular target: T1, human PlGF-1 comprising amino acids 1-137 produced in human embryonic kidney cells (human, UniProt P49763 19-221); assay: … sandwich, capture MAb255, detection MAb826; antigen 250 pg/mL
T1 construct: Mature human PlGF-1 with 6xHis tag; also called HEK (1-137); full length HEK human PlGF-1 (1-137)
T1 sequence: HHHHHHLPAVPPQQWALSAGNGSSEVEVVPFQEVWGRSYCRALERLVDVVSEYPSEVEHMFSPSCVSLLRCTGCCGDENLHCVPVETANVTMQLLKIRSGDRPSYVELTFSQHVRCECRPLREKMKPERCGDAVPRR
How it was run: (§1)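 Human PlGF-1 antigen preparations, including recombinant forms expressed in CHO cells, were tested at 0 to 1500 pg/mL in a sandwich immunoassay. The capture antibody was a monoclonal anti-human PlGF-1 antibody immobilized on magnetic microparticles by passive coating and EDAC cross-linking. Detection used an acridinium ester-labeled monoclonal anti-human PlGF-1 antibody. Signal was recorded as chemiluminescent relative light units (RLU) at each antigen level.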

[8] = molecular target: T2, CHO human PlGF-1 comprising amino acids 1-137 (human PlGF-1-His (1-131), CHO 6305) (human, UniProt P49763 19-221, N-glycans at N21 (completely glycosylated) and N89 (partially glycosylated)); assay: as above
T2 construct: Mature human PlGF-1 with 6xHis tag (137 amino acids); also called CHO (1-137)
T2 sequence: T1 sequence
How it was run: as §1

[9] = molecular target: T1, human PlGF-1 comprising amino acids …; assay: … sandwich, capture MAb255, detection pAb264; antigen 750 pg/mL
[10] = molecular target: T3, human PlGF-1 fragment (comprising amino acids 17-131) produced in human embryonic kidney cells (human, UniProt P49763 35-221); assay: as above
T3 sequence: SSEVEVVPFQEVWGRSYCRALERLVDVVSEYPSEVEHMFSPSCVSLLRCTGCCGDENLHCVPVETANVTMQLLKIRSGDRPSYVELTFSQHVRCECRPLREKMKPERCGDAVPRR

[11] = molecular target: T4, CHO human PlGF-1 fragment (comprising amino acids 17-131; ATCC PTA-8540) (human, UniProt P49763 35-221); assay: as above
T4 sequence: T3 sequence

[12] = molecular target: T2, CHO human PlGF-1 comprising amino acids …; assay: as above
[13] = molecular target: recombinant human PlGF-1 (comprising amino acids 1-131) expressed in E. coli (R&D Systems) (human) (UniProt P49763); assay: … sandwich, capture MAb255, detection MAb826; antigen 250 pg/mL
[14] = molecular target: recombinant human PlGF-1 (comprising amino acids 1-131) expressed in E. coli (R&D Systems) (human) (UniProt P49763); assay: … sandwich, capture MAb826, detection pAb264; antigen 15 pg/mL
[15] = molecular target: T1, human PlGF-1 comprising amino acids …; assay: … sandwich, capture MAb826, detection pAb264; antigen 1500 pg/mL
[16] = molecular target: T3, human PlGF-1 fragment (comprising amino …); assay: as above
[17] = molecular target: T4, CHO human PlGF-1 fragment (comprising …); assay: as above
[18] = molecular target: T2, CHO human PlGF-1 comprising amino acids …; assay: as above

- % Inhibition [1]: 81.8%
- PlGF-1 Measured [1]: 143 pg/mL
- % Inhibition [2]: 94.1%
- PlGF-1 Measured [2]: 60.3 pg/mL
- % Inhibition [3]: 51.8%
- PlGF-1 Measured [3]: 417 pg/mL
- % Inhibition [4]: 95%
- PlGF-1 Measured [4]: 51.3 pg/mL
- % Inhibition [5]: 92.9%
- PlGF-1 Measured [5]: 55.5 pg/mL
- % Inhibition [6]: 18.3%
- PlGF-1 Measured [6]: 707 pg/mL
Molecule: native sFlt-1, isolated from human placental tissue (from UniProt P17948 27-687) (receptor)

- RLU [7]: 367000 RLU
- RLU [8]: 153000 RLU
- RLU [9]: 1.31e+06 RLU
- RLU [10]: 908000 RLU
- RLU [11]: 713000 RLU
- RLU [12]: 599000 RLU
- RLU [13]: 298000 RLU
B1: monoclonal antibody 1-255-713 (produced by murine hybridoma cell line 1-255-713, ATCC PTA-8536) (antibody, mouse IgG2a, V domains shown)
VH: QVHLQQSGAELMKPGASVKISCKATGYTFSSYWIEWVKQRPGHGLEWIGEILPGSVSNNFNEKFKDKATLTADPSSNTAYIQVSSLTSEDSAVYYCARSTGFYYGGNYFDHWGQGTTLAVSS
VL: DVVMTQTPLSLPVSPGDQASISCRSSQSLVHSNGHTYLHWYLQKPGQSPKLLIYKVSNRFSGVPDRVSGSGSGTDFTLKISRVEAEDLGVYFCSQSTHVPPTFGGGTKLEIKR
notes: also called MAb255

- RLU [14]: 19600 RLU
- RLU [15]: 760000 RLU
- RLU [16]: 624000 RLU
- RLU [17]: 456000 RLU
- RLU [18]: 329000 RLU
B2: monoclonal antibody 2-826-335 (produced by murine hybridoma cell line 2-826-335, ATCC PTA-8539) (antibody, mouse IgG1, V domains shown)
VH: QVQLKQSGPGLVQPSQSLSITCTVSGFSLTTYGIHWVRQSPGKGLEWLGVMWSGGDTDYDAAFISRLSISKDNSKSQVFFKMNSLQANDTGIYYCARYRFYGMDYWGQGTSVTVSS
VL: AIQMTQSSSSFSVSLGDRVTITCKASEDIYNRFAWYQQKPGNAPRLLISGAASLEAGVPSRFSGSGSGQDYTLSITSLQTEDVATYYCQQYWSTPWTFGGGTKLEIKR
notes: also called MAb826

From patent publication US20100015637A1 (AbbVie / Abbott, published 2010)
